Measured values reported in US7498317B2, “Antibacterial agents and process for producing the same” (Kabushiki Kaisha Yakult Honsha, priority 1998, dated 2009).

System: Helicobactor pylori
Assay: Growth of Helicobactor pylori in 96-well microplate (turbidity at 600 nm)
Type: cell-based
Conditions: 37° C. for 3 days; for suppression of the growth of Helicobactor pylori: 2 μL of 1 mg/mL added to 200 μL culture; for absorbance (turbidity at 600 nm): 2 μL of 1 mg/mL added to 200 μL of 1.5×10^8 CFU/mL in Brucella medium with 5% FCS, slightly aerobic, control group 0.835

Row | Compound | suppression of the growth of Helicobactor pylori | absorbance (turbidity at 600 nm)
1 | CON=C(C(=O)N[C@@H]1C(=O)N2C(C(=O)O)=C(COC(C)=O)CS[C@H]12)c1csc(NCC(O)C2OCC(O)C2OC2OC(CO)C(OS(=O)(=O)O)C(O)C2O)n1 (stereo partly shown) [CarrabioCTX] | totally suppressed the growth | 0.000
2 | CC1(C)S[C@@H]2[C@H](NC(=O)C(NCC(O)C3OCC(O)C3OC3OC(CO)C(OS(=O)(=O)O)C(O)C3O)c3ccccc3)C(=O)N2C1C(=O)O (stereo partly shown) [CarrabioAM] | totally suppressed the growth | 0.003
